Results from paper PMC9318713, “Exploring the Utility of ssDNA Aptamers Directed against Snake Venom Toxins as New Therapeutics for Snakebite Envenoming”.

T1: ancrod (recombinant SVSP) (Calloselasma rhodostoma? (printed C. …, UniProt P26324 1-234))
T1 sequence: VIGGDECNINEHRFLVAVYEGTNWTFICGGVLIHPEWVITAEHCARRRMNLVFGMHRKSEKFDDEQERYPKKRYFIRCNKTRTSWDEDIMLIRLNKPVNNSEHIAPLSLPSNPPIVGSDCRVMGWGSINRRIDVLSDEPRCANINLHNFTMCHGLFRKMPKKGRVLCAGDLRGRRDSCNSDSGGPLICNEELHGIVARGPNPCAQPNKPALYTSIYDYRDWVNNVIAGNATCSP

B1: ancrod-55 (ssDNA)
DNA: GGACCGACCCTTTAGCATTTATGACCCTTGTCATCGGGCT
B2: batroxobin-26 (ssDNA)
DNA: TGTCTGGTATGCAAAGGACTGCTGTACTGTTAGCTTTTGT
B3: ancrod-7 (ssDNA)
DNA: TAGCATGGGTGGTCAATTTAAGTACAGTGTCGTGCTCACT
B4: ancrod-11 (ssDNA)
DNA: TGGTCTAAGGACTGCTTAGGATTGCGATATGGTCCAGATG
B5: batroxobin-5 (ssDNA)
DNA: TAGTAACAGGTCTGCTTAGGCTTGCGAGGAGTACTAGTAT
B6: batroxobin-29 (ssDNA)
DNA: AGGTCCTATTGTATACAGGGAGCCCTCGGTCTTGCTGTGA

Key:
[1] = biological target: T1, ancrod (recombinant SVSP); test: fluorescence bead binding assay; 2 mM Mg2+; Kd: 50 mM Tris-HCl pH 7.5, 150 mM NaCl, 2 mM MgCl2, RT, 1 h, toxin on Sepharose beads; ALISA: 100 ng toxin coated, aptamer in nuclease-free water, RT, 2 h, PBST; details: protein: recombinant; label: 6-FAM (Kd); HRP (ALISA)
[2] = biological target: T2, batroxobin (recombinant SVSP) (Bothrops atrox? (printed B. atrox), UniProt P04971 25-255); test: fluorescence bead binding assay; 2 mM Mg2+; details: protein: recombinant; label: 6-FAM (Kd); HRP (ALISA)
T2 sequence (P04971 25-255): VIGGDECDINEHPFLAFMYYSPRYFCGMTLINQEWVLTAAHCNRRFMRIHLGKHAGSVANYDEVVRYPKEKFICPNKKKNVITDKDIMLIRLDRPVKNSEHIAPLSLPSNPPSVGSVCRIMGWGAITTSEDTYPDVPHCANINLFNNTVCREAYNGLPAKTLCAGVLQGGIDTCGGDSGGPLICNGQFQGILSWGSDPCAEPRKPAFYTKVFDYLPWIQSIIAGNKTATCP

[3] = biological target: T1, ancrod (recombinant SVSP); test: fluorescence bead binding assay; 2 mM Mg2+; Kd only in figure, within 3.0-17.8 nM; Kd: 50 mM Tris-HCl pH 7.5, 150 mM NaCl, 2 mM MgCl2, RT, 1 h, toxin on Sepharose beads; ALISA: 100 ng toxin coated, aptamer in nuclease-free water, RT, 2 h, PBST; details: protein: recombinant; label: 6-FAM
[4] = biological target: T2, batroxobin (recombinant SVSP); test: fluorescence bead binding assay; details: protein: recombinant; label: 6-FAM

| Binder | binding result [3] | binding result [4] | further results |
| --- | --- | --- | --- |
| B1 |  |  | Kd [1]: 3 nM |
| B2 |  |  | Kd [2]: 4.7 nM |
| B3 | binds |  |  |
| B4 | binds |  |  |
| B5 |  | binds |  |
| B6 |  | binds |  |
